Assay results as given in patent US20190202883A1 (Takeda / Millennium, published 2019).
Square brackets hold non-standard residues; d marks the D form. Side chains are listed from the residue outwards. Phe(2-F) = N[C@@H](Cc1ccccc1F)C(=O)O; αMeF = C[C@](N)(Cc1ccccc1)C(=O)O; Iva = CC[C@](C)(N)C(=O)O; Oda = not defined here; Aib = CC(C)(N)C(=O)O

T1: human GIPR (human, UniProt P48546 22-466)
T1 sequence (looked up): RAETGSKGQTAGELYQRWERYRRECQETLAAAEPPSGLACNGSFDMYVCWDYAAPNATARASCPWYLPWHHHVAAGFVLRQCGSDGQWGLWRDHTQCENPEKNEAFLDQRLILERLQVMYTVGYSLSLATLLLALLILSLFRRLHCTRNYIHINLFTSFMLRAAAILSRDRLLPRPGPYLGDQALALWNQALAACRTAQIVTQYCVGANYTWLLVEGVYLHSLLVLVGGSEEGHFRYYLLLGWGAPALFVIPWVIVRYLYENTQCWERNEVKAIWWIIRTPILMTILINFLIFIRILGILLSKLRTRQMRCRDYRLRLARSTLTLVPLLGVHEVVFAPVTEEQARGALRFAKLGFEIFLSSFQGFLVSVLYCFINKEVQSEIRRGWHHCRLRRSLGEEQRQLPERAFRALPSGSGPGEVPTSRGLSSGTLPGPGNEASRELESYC

T2: human NPY2R (human, UniProt P49146 1-381)
T2 sequence (looked up): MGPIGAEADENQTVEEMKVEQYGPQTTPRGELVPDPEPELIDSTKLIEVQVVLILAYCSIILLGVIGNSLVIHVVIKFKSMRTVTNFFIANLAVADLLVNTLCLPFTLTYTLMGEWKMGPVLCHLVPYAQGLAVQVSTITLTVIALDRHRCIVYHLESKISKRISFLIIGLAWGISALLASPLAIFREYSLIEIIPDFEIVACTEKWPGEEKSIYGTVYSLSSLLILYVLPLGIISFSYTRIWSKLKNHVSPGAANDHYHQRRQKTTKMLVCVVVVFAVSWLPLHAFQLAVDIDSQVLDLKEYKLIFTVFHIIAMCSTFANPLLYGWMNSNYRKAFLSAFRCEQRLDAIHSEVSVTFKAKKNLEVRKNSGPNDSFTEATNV

B1: H-Tyr-Aib-Glu-Gly-Thr-αMePhe-Thr-Ser-Asp-Lys(-Gly-Gly-Gly-Gly-Oda)-Ala-Ile-Aib-Leu-Glu-Lys-Gln-Arg-Gln-Iva-Glu-Phe-Val-Arg-His-Leu-Leu-Asn-Lys-Aib-Thr-Arg-Gln-A … (peptide)
peptide: H-Y[Aib]EGT[αMeF]TSDK([Gly-Gly-Gly-Gly-Oda])AI[Aib]LEKQRQ[Iva]EFVRHLLNK[Aib]TRQRY-NH2
modifications: reading uncertain; also: printed as H-Tyr-Aib-Glu-Gly-Thr-αMePhe-Thr-Ser-Asp-Lys(-Gly-Gly-Gly-Gly-Oda)-Ala-Ile-Aib-Leu-Glu-Lys-Gln-Arg-Gln-Iva-Glu-Phe-Val-Arg-His-Leu-Leu-Asn-Lys-Aib-Thr-Arg-Gln-Arg-Tyr-NH2
B2: Me-Tyr-Aib-Glu-Gly-Thr-αMePhe-Thr-Ser-Asp-Lys(-Gly-Gly-Gly-Gly-Pal)-Ala-Ile-Aib-Leu-Glu-Lys-Gln-Arg-Gln-Iva-Glu-Phe-Val-Arg-His-Leu-Leu-Asn-Lys-Aib-Thr-Arg-Gln- … (peptide)
peptide: Me-Y[Aib]EGT[αMeF]TSDK([Gly-Gly-Gly-Gly-Pal])AI[Aib]LEKQRQ[Iva]EFVRHLLNK[Aib]TRQRY-NH2
B3: H-Tyr-Aib-Glu-Gly-Thr-αMePhe-Thr-Ser-Asp-Lys(-Gly-Gly-Gly-Gly-Pal)-Aib-Ile-Aib-Leu-Asp-Lys-Gln-Arg-Gln-Iva-Glu-Phe-Val-Arg-His-Leu-Leu-Asn-Lys-Aib-Thr-Arg-Gln-A … (peptide)
peptide: H-Y[Aib]EGT[αMeF]TSDK([Gly-Gly-Gly-Gly-Pal])[Aib]I[Aib]LDKQRQ[Iva]EFVRHLLNK[Aib]TRQRY-NH2
B4: Me-Tyr-Aib-Glu-Gly-Thr-αMePhe-Thr-Ser-Asp-Lys(-Gly-Gly-Gly-Gly-Oda)-Aib-Ile-Aib-Leu-Asp-Lys-Gln-Arg-Gln-Iva-Glu-Phe-Val-Arg-His-Leu-Leu-Asn-Lys-Aib-Thr-Arg-Gln- … (peptide)
peptide: Me-Y[Aib]EGT[αMeF]TSDK([Gly-Gly-Gly-Gly-Oda])[Aib]I[Aib]LDKQRQ[Iva]EFVRHLLNK[Aib]TRQR[Phe(2-F)]-NH2
modifications: reading uncertain; also: printed as Me-Tyr-Aib-Glu-Gly-Thr-αMePhe-Thr-Ser-Asp-Lys(-Gly-Gly-Gly-Gly-Oda)-Aib-Ile-Aib-Leu-Asp-Lys-Gln-Arg-Gln-Iva-Glu-Phe-Val-Arg-His-Leu-Leu-Asn-Lys-Aib-Thr-Arg-Gln-Arg-Phe(2-F)-NH2
B5: Me-Tyr-Aib-Glu-Gly-Thr-αMePhe-Thr-Ser-Asp-Lys(-Gly-Gly-Gly-Gly-Oda)-Aib-Ile-Aib-Leu-Asp-Lys-Gln-Arg-Gln-Iva-Glu-Phe-Val-Arg-His-Leu-Leu-Asn-Lys-Aib-Thr-Arg-Gln- … (peptide)
peptide: Me-Y[Aib]EGT[αMeF]TSDK([Gly-Gly-Gly-Gly-Oda])[Aib]I[Aib]LDKQRQ[Iva]EFVRHLLNK[Aib]TRQRY-NH2
modifications: reading uncertain; also: printed as Me-Tyr-Aib-Glu-Gly-Thr-αMePhe-Thr-Ser-Asp-Lys(-Gly-Gly-Gly-Gly-Oda)-Aib-Ile-Aib-Leu-Asp-Lys-Gln-Arg-Gln-Iva-Glu-Phe-Val-Arg-His-Leu-Leu-Asn-Lys-Aib-Thr-Arg-Gln-Arg-Tyr-NH2
B6: H-Tyr-Aib-Glu-Gly-Thr-αMePhe-Thr-Ser-Asp-Lys(-Gly-Gly-Gly-Gly-Pal)-Aib-Ile-Aib-Leu-Asp-Lys-Gln-Ala-Gln-Iva-Glu-Phe-Val-Arg-His-Leu-Leu-Asn-Lys-Aib-Thr-Arg-Gln-A … (peptide)
peptide: H-Y[Aib]EGT[αMeF]TSDK([Gly-Gly-Gly-Gly-Pal])[Aib]I[Aib]LDKQAQ[Iva]EFVRHLLNK[Aib]TRQR[Phe(2-F)]-NH2
B7: Me-Tyr-Aib-Glu-Gly-Thr-αMePhe-Thr-Ser-Asp-Lys(-Gly-Gly-Gly-Gly-Oda)-Aib-Ile-Aib-Leu-Glu-Lys-Gln-Arg-Gln-Iva-Glu-Phe-Val-Arg-His-Leu-Leu-Asn-Lys-Aib-Thr-Arg-Gln- … (peptide)
peptide: Me-Y[Aib]EGT[αMeF]TSDK([Gly-Gly-Gly-Gly-Oda])[Aib]I[Aib]LEKQRQ[Iva]EFVRHLLNK[Aib]TRQRY-NH2
modifications: reading uncertain; also: printed as Me-Tyr-Aib-Glu-Gly-Thr-αMePhe-Thr-Ser-Asp-Lys(-Gly-Gly-Gly-Gly-Oda)-Aib-Ile-Aib-Leu-Glu-Lys-Gln-Arg-Gln-Iva-Glu-Phe-Val-Arg-His-Leu-Leu-Asn-Lys-Aib-Thr-Arg-Gln-Arg-Tyr-NH2
B8: Me-Tyr-Aib-Glu-Gly-Thr-αMePhe-Thr-Ser-Asp-Lys(-Gly-Gly-Gly-Gly-Pal)-Aib-Ile-Aib-Leu-Asp-Lys-Gln-Arg-Gln-Iva-Glu-Phe-Val-Arg-His-Leu-Leu-Asn-Lys-Aib-Thr-Arg-Gln- … (peptide)
peptide: Me-Y[Aib]EGT[αMeF]TSDK([Gly-Gly-Gly-Gly-Pal])[Aib]I[Aib]LDKQRQ[Iva]EFVRHLLNK[Aib]TRQR[Phe(2-F)]-NH2
B9: H-Tyr-Aib-Glu-Gly-Thr-αMePhe-Thr-Ser-Asp-Lys(-Gly-Gly-Gly-Gly-Pal)-Ala-Ile-Aib-Leu-Glu-Lys-Gln-Arg-Gln-Iva-Glu-Phe-Val-Arg-His-Leu-Leu-Asn-Lys-Aib-Thr-Arg-Gln-A … (peptide)
peptide: H-Y[Aib]EGT[αMeF]TSDK([Gly-Gly-Gly-Gly-Pal])AI[Aib]LEKQRQ[Iva]EFVRHLLNK[Aib]TRQRY-NH2

These binders were tested against human GLP-1R (human, UniProt P43220 24-463) (assay: cell-based or functional assay).
B1 was tested, and the “Agonist activity (EC50), Cre-luc reporter assay” value (“Agonist activity (EC50)” for short) was 0.53 nM. With B2 the “Agonist activity (EC50)” value was 0.036 nM. B3 was tested, and the “Agonist activity (EC50)” value was 0.082 nM. With B4 the “Agonist activity (EC50)” value was 1.5 nM. For B5, the “Agonist activity (EC50)” value was 1.4 nM. B6 was tested, and the “Agonist activity (EC50)” value was 0.014 nM. With B7 the “Agonist activity (EC50)” value was 1.1 nM. In the case of B8, the “Agonist activity (EC50)” value is reported as 0.13 nM. B9 was tested, and the “Agonist activity (EC50)” value was 0.045 nM.

The binders below were run against T1, human GIPR (assay: cell-based or functional assay).
In the case of B1, the “Agonist activity (EC50)” value is reported as 0.36 nM. In the case of B2, the “Agonist activity (EC50)” value is reported as 0.04 nM. In the case of B3, the “Agonist activity (EC50)” value is reported as 0.068 nM. In the case of B4, the “Agonist activity (EC50)” value is reported as 0.29 nM. B5 was tested, and the “Agonist activity (EC50)” value was 0.25 nM. In the case of B6, the “Agonist activity (EC50)” value is reported as 0.035 nM. For B7, the “Agonist activity (EC50)” value was 0.53 nM. In the case of B8, the “Agonist activity (EC50)” value is reported as 0.093 nM. With B9 the “Agonist activity (EC50)” value was 0.042 nM.

What follows are binders tested against T2, human NPY2R (assay: cell-based or functional assay).
For B1, the “Agonist activity (EC50)” value was 1.1 nM. B2 was tested, and the “Agonist activity (EC50)” value was 0.026 nM. With B3 the “Agonist activity (EC50)” value was 0.1 nM. For B4, the “Agonist activity (EC50)” value was 1 nM. B5 was tested, and the “Agonist activity (EC50)” value was 2 nM. With B6 the “Agonist activity (EC50)” value was 0.031 nM. For B7, the “Agonist activity (EC50)” value was 1.5 nM. B8 was tested, and the “Agonist activity (EC50)” value was 0.12 nM. With B9 the “Agonist activity (EC50)” value was 0.023 nM.
